Results: patent US20130224191A1, “NOTUM PROTEIN MODULATORS AND METHODS OF USE” (priority 2010, published 2013)
“Also recorded” adds a separate entry of the source.

Columns and labels:
[1] = target: T1, chimeric human/mouse Notum (Homo sapiens, UniProt Q6P988, A205S/A256S/E196D/E289D/E487K/H276R/H373G/H396Y/K251E/L360Q/L418F/L429M/L483M/M474V/N299S/P379Q/P480Q/Q248L/Q311K/R218K/R307Q/R361W/S193P/T277S/T284N/V280I/V301M/V434F/V452I/Y171H); assay: Epitope mapping ELISA, chimeric Notum; format: binding
T1 construct: human mature Notum protein (residues 19-144) fused to the mouse Notum (mouse residues 150-484); His tag; made in house
T1 sequence (Q6P988 with tags, fused parts or gaps Y171H/S193P/E196D/A205S/R218K/Q248L/K251E/A256S/H276R/T277S/V280I/T284N/E289D/N299S/V301M/R307Q/Q311K/L360Q/R361W/H373G/P379Q/H396Y/L418F/L429M/V434F/V452I/M474V/P480Q/L483M/E487K): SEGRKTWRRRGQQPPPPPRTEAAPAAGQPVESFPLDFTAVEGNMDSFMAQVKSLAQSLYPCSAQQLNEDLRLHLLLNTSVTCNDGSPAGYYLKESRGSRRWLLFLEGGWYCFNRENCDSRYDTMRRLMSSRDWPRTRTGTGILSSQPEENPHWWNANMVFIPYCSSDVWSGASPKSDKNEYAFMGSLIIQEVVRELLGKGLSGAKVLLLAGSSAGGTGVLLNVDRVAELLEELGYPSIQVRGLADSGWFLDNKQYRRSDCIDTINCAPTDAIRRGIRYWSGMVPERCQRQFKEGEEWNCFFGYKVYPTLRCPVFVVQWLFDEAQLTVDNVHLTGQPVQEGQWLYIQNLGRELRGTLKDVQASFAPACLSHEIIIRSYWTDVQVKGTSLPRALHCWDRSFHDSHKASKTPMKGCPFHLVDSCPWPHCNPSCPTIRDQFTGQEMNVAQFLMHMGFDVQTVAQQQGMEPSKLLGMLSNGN
Description: To better understand the structural basis for the interaction of SC2.D2.2 with human Notum, a chimeric Notum protein was fabricated. This approach takes advantage of the fact that the orthologs are structurally related. To that end a chimeric Notum molecule composed of the N terminal of the human mature Notum protein (residues 19-144) fused to the mouse Notum (mouse residues 150-484) (genes both consistent with Example 7) was generated and expressed in a similar manner to that set forth in previous Examples. The BamHI restriction cleavage site in human Notum gene was used for construction of in-frame fusion Notum chimeric protein. An expression vector was then constructed containing the His tagged chimeric Notum sequence.
Binding of SC2.D2.2 and other mouse mAbs to purified Notum molecules generated from transient transfection of Human and Mouse Notum cDNAs were tested using ELISA assay with human Notum, mouse Notum and chimeric human/mouse Notum coated directly on ELISA plate. Binding of anti-Notum mAbs was detected with HRP-conjugated goat anti mouse antibody and followed by colorimetric horseradish peroxidase substrate (TMB substrate Thermo Scientific). The absorbance of each well of the ELISA plates was measured at 450 nm on a microplate autoreader.

[2] = target: T2, Notum (Homo sapiens, UniProt Q6P988); assay: 293.TCF assay with rhWnt3A, standard and preincubation protocol; format: cell-based
T2 sequence (Q6P988 20-496): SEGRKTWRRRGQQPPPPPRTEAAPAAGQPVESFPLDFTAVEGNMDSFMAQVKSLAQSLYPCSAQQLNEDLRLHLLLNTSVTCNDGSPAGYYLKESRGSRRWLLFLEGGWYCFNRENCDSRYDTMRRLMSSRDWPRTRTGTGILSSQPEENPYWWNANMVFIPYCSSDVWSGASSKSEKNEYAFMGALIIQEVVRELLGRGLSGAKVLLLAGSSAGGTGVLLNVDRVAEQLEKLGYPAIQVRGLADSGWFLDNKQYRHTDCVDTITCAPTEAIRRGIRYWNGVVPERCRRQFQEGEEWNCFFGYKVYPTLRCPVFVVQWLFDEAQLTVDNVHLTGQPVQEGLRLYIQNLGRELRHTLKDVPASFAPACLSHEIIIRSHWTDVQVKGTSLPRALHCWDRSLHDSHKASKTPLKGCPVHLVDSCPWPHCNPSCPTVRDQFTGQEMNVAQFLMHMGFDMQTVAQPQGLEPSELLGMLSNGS
Procedure: In order to determine the kinetics of Notum mediated antagonism of Wnt3A signaling, recombinant Notum alone or in the presence of SC2.D2.2 was preincubated with recombinant human Wnt3A (rhWnt3A) for 2 hours at 37° C., prior to addition of the complexes to 293.TCF cells. This resultant induction of luciferase by the rhWnt3A was compared to that observed using the standard protocol for the 293.TCF assay, in which Notum alone or Notum+SC2.D2.2 was added to the cells for two hours prior to the addition of rhWnt3A. […] Of interest however, is the preincubation of Notum and rhWnt3A prior to addition to the 293.TCF cells. In this case the response of the cells to rhWnt3A is reduced greatly (closed circles FIG. 27B).

[3] = target: T2, Notum; assay: Neutralization of human Notum activity in 293.TCF luciferase assay; format: cell-based; design: 8x-His; Strep-tag II; IgK signal peptide/leader of the pSEC-CAG vector (N); made in house; host or cells: HEK293T (adherent) / suspension 293 cells
Procedure: Using the 293.TCF cells described above, supernatants from hybridomas and/or purified antibodies shown to bind Notum by ELISA assays (Example 9) were screened for their ability to neutralize hNotum-His or hNotum-Fc activity as follows. 2.5×10^4 293.TCF cells were plated per well of a 96-well tissue culture plate in 50 μL of serum-free medium. After 23 hours of serum starvation, 10 μL of DMEM+0.2% FBS containing various Notum proteins at various concentrations were mixed with either 15 μL of supernatant from the hybridoma, or 15 μL of purified antibody at various concentrations, and allowed to incubate for 5 minutes at room temperature. The 25 μL antibody:Notum mixture was then added to the 293.TCF cells. After 1 hour, 25 μL of Wnt3A or control L-cell CM were added to each well. Eighteen hours after addition of CM, 100 μL of One-Glo solution (ProMega Corp.) was added to each well. The contents of each well were then mixed thoroughly to lyse the cells, 100 μL of lysate transferred to black 96-well plates, and the luminescence read after 5 minutes. […]

B1: SC2.D2.2 (antibody, V domains shown)
VH: DVQLVESGGGLVQPGGSRKISCAASGFTFSSYGMHWVRQAPEKGLEWVAYISSSTVTTYYADTVKGRFTISRDNANNTLFLQMTSLRSEDTAMYYCSRQNWDGGYFDVWGAGTTVTVSS
VL: DIVLTQSLASLAVSLGQRATISCRASKSVSSSGYSYMHWYQQKPGQPPKLLIYLASNLESGVPARFSGSGSGTDFTLNIHPVEEEDAATYYCQHSRALPLTFGAGTKLELKR
notes: also called murine SC2.D2.2
binding to Notum chimeric protein [1]: confirmed the binding
location of epitope [1]: within the first 135 residues of the N terminus of the human Notum protein
effect on response of cells to rhWnt3A ([2]; Notum complexed with antibody prior to preincubation with rhWnt3A, 2 hours at 37° C.): restores the sensitivity of the cells to rhWnt3A
effect on Notum antagonism of rhWnt3A ([2]; standard protocol, 10 μg/mL antibody, 250 ng/mL rhWnt3A): blocks the ability of Notum to antagonize the rhWnt3A
inhibition of human Notum activity [3]: acts in a concentration dependent manner to antagonize the effects of added hNotum-His; also recorded: can inhibit the activity of human Notum in a dose dependent fashion; also recorded: specifically inhibit the human version of Notum
